According to patent US20120329986A1 (UNIVERSITE DE MONTREAL, published 2012):
Square brackets hold non-standard residues; d marks the D form. Ends that are not written are not given here. dTrp(2-Me) = Cc1[nH]c2ccccc2c1C[C@@H](N)C(=O)O; HAIC = not defined here

Biological target: CD36 receptor (in the src-kinase cellular assay)
Test: cell-based or functional assay

SRC-kinase cellular assay EC50: 26 nM
Binder: [HAIC][dTrp(2-Me)][dK]W[dF]K-NH2 (reading uncertain) [EP80317]
